{"source": "paper PMC3999280", "target": "LdtRLas ('Candidatus Liberibacter asiaticus', UniProt A0ABN4AZS1 1-171)", "test": "competition", "conditions": "protein: recombinant; tags: N-terminal His6 removed by TEV; chain copies: 2; label: none; blunt"}
{"binder": "CD-3 (dsDNA) DNA 1: TCTTCTAATATTCCTTGTATTTTAATTATGTTCGAATTTTATTTT DNA 2: AAAATAAAATTCGAACATAATTAAAATACAAGGAATATTAGAAGA", "values": [{"measurement": "binding result", "result": "binds"}]}
